{"source": "paper PMC8847575", "about": "“HSL1 and BAM1/2 impact epidermal cell development by sensing distinct signaling peptides” (Nature Communications, 2022)", "key": {"HSL1 ectodomain": {"target": "T1, HSL1 ectodomain (Arabidopsis thaliana, UniProt Q9SGP2)", "T1 construct": "HSL1 (residues 17-618, AT1G28440); azurocidin or Drosophila BIP signal peptide (secretion signal) (N); made in house; host or cells: Trichoplusia ni Tnao38 insect cells (baculovirus)", "T1 sequence (Q9SGP2 17-618)": "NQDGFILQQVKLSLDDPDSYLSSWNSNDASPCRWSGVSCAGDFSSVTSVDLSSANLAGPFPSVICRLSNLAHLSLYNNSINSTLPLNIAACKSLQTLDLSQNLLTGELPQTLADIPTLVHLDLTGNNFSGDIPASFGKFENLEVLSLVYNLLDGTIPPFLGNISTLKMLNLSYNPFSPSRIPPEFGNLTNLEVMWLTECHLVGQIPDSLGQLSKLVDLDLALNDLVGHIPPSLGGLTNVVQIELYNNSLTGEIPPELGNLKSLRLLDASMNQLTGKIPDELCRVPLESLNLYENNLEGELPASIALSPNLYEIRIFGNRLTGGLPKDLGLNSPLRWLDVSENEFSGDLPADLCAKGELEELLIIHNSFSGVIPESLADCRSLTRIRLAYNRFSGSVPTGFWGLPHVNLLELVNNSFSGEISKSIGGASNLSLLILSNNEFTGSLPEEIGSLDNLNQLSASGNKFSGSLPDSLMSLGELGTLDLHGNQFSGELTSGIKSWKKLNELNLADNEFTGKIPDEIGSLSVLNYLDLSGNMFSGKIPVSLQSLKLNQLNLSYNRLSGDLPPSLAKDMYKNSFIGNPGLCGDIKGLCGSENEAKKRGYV", "experiment": "GCI binding kinetics, peptide vs immobilised HSL1", "conditions": "HSL1 on surface, peptide as analyte, 25 °C, pH 5, one-to-one binding model, read-out: ka association rate constant, peptide vs HSL1 (GCI)", "procedure": "25 μM of HSL1 were biotinylated with the biotin ligase BirA[60] (2 μM) for 1 h at 30 °C, in a volume of 200 μl. The buffer used in the reaction was: 25 mM Tris pH 8, 150 mM NaCl, 5 mM MgCl2, 2 mM 2-Mercaptoethanol, 0.15 mM Biotin, 2 mM ATP. Biotinylated proteins were purified by size-exclusion chromatography in 20 mM citric acid pH5, 150 mM NaCl and subsequently used in GCI experiments.\nGCI experiments were performed with the Creoptix WAVE system (Creoptix AG, Switzerland) using 4PCP WAVE chips (thin quasiplanar polycarboxylate surface; Creoptix, Switzerland). Chips were first conditioned with borate buffer (100 mM sodium borate pH 9.0, 1 M NaCl; Xantec, Germany). Chips were activated with 1:1 mix of 400 mM N-(3-dimethylaminopropyl)-N′-ethylcarbodiimide hydrochloride and 100 mM N-hydroxysuccinimide (Xantec, Germany). Streptavidin (50 µg/ml; Sigma, Germany) in 10 mM sodium acetate pH 5.0 (Sigma, Germany) was immobilized on the chip surface until saturation was reached, followed by passivation of the surface with BSA (50 µg/ml; Sigma, Germany) in 10 mM sodium acetate pH5.0, and a final quenching step with 1 M ethanolamine pH 8.0 (Xantec, Germany). Then, biotinylated HSL1 (ligand) (80–100 μg/ml) was captured on the streptavidin surface until the desired density was reached. Normal kinetic analysis were performed to measure the binding of IDL peptides (analyte) to HSL1. Experiments were performed at 25 °C with a 1:2 dilution series from a maximum concentration of 5–50 μM peptide, in 20 mM citrate pH 5, 250 mM NaCl, 0.005% Tween-20 v/v. To analyze the interaction kinetics of the co-receptor SERK1, 2 µM of the protein was used as a higher dilution with running buffer containing 5 µM of the IDL peptides being tested. Blank injections were used for double referencing and a dimethylsulfoxide (DMSO) calibration curve for bulk correction. Analysis and correction of the obtained data were performed using the Creoptix WAVE control software (correction applied: X and Y offset; DMSO calibration; double referencing). One-to-one binding model was used for both experiments."}, "[1]": {"target": "T2, BAM1 (BARELY ANY MERISTEM 1) ectodomain (Arabidopsis, UniProt O49545 20-637)", "T2 chain": "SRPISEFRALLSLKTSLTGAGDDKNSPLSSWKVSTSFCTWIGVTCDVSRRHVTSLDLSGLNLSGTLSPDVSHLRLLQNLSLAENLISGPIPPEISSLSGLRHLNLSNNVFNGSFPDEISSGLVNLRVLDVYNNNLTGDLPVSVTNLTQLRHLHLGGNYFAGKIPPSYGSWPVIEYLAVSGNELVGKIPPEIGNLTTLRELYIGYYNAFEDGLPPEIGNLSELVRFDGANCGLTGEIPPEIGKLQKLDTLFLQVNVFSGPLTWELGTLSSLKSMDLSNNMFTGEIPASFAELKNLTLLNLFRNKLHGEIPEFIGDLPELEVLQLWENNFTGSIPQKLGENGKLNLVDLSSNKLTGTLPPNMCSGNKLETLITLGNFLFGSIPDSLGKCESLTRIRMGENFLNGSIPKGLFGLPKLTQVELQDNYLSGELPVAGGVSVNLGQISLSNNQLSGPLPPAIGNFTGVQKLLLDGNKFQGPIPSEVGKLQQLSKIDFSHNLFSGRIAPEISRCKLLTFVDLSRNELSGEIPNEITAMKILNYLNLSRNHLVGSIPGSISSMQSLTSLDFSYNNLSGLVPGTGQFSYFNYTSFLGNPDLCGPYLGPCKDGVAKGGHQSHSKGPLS", "experiment": "ITC; R109P L110I"}, "[2]": {"target": "T3, BAM1 (BARELY ANY MERISTEM 1) ectodomain (Arabidopsis, UniProt O49545 20-637)", "T3 construct": "BAM1 LRR receptor kinase ectodomain, Arabidopsis, residues 20-637, AT5G65700; codon optimised; secreted with an azurocidin or Drosophila BiP signal peptide; also called BAM1 extracellular domain; BAM1 LRR ectodomain; source: Trichoplusia ni Tnao38 cells (baculovirus), secreted, purified (Ni2+, Strep-Tactin, TEV cleavage, second Ni2+, SEC)", "T3 sequence (looked up)": "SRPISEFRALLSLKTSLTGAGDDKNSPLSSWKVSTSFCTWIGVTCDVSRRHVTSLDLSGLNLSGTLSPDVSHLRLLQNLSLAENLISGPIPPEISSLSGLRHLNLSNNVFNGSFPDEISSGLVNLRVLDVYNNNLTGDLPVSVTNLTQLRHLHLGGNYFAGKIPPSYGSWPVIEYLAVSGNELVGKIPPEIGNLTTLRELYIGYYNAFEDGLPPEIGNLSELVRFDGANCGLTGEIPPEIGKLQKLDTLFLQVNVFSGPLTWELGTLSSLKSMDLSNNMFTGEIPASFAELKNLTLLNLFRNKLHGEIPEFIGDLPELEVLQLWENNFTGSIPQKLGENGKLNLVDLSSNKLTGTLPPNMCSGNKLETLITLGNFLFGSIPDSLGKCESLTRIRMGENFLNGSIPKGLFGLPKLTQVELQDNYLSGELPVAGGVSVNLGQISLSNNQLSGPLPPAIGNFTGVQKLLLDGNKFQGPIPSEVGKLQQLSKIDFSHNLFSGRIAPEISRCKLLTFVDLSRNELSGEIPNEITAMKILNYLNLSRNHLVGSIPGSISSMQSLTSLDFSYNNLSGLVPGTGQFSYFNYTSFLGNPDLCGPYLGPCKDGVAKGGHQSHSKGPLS", "experiment": "ITC; peptide (75 to 600 µM) injected into 10 to 30 µM HSL1 or BAM1 ectodomain in the cell; 25 °C; 20 mM sodium citrate pH 5.0, 150 mM NaCl; N fitted to 1", "conditions": "both partners purified"}, "[3]": {"target": "T2, BAM1 (BARELY ANY MERISTEM 1) ectodomain", "experiment": "ITC"}}, "note": "Square brackets hold non-standard residues; d marks the D form. Peptide text beside a SMILES is read from it. Hyp = O=C(O)[C@@H]1C[C@@H](O)CN1", "data": [{"molecule": "CC(C)[C@H](NC(=O)[C@@H]1CCCN1)C(=O)N1CCC[C@H]1C(=O)N[C@@H](C)C(=O)N[C@@H](CO)C(=O)N[C@@H](C)C(=O)N1C[C@H](O)C[C@H]1C(=O)N[C@@H](CO)C(=O)N[C@@H](CCCNC(=N)N)C(=O)N[C@@H](CCCCN)C(=O)N[C@@H](Cc1c[nH]cn1)C(=O)N[C@@H](CC(N)=O)C(=O)O", "note": "[IDL4, IDA-LIKE] (H-PVPASA[Hyp]SRKHN-OH)", "values": [{"measurement": "kon", "setting": "HSL1 ectodomain", "result": 460000, "unit": "M⁻¹ s⁻¹"}]}, {"molecule": "RIVPSGPNPLHN", "note": "[CLE9 variant with the second residue substituted by the corresponding one of IDA]", "values": [{"measurement": "Kd", "setting": "[1]", "result": 129, "unit": "nM"}]}, {"molecule": "RLPPSGPNPLHN (peptide, UniProt Q9FZE4 109-120, looked up, CLE9 mature dodecapeptide with Val111 changed to Pro; also called replacement of the third Val by a Pro)", "note": "[CLE9^V111P peptide]", "values": [{"measurement": "Kd", "setting": "[2]", "result": 3000, "unit": "nM"}]}, {"molecule": "RLVPSGPNPLHN (peptide, UniProt Q9FZE4 109-120, looked up, Pro112 and Pro115 not hydroxylated, CLE9 mature dodecapeptide with plain proline at 112 and 115 in place of hydroxyproline; also called CLE9 with Hyp in positions 4 and 7 replaced by Pro)", "note": "[CLE9^Hyp112PHyp115P peptide]", "values": [{"measurement": "Kd", "setting": "[2]", "result": "~5", "unit": "nM"}, {"measurement": "Kd", "setting": "[3]", "result": 3, "unit": "nM"}]}]}
